Measured values published in patent US20170173106A1, “Polypeptide Fragments of 168A-T2 and Compositions Comprising Them for Use in Treating Cancer” (GENE SIGNAL INTERNATIONAL SA, priority 2014, published 2017).

Assays:
Format in all cases: cell-based
Conditions in all cases: 33 μM; 2 hrs
[1] = biological target: T1, CD9-CD9P-1 complex (Homo sapiens, UniProt P21926+Q9P2B2); experiment: Immunoprecipitation in HUVECs: CD9P-1 with CD9
T1 construct: endogenous in cells; host or cells: HUVEC
T1 sequence (Q9P2B2 26-879): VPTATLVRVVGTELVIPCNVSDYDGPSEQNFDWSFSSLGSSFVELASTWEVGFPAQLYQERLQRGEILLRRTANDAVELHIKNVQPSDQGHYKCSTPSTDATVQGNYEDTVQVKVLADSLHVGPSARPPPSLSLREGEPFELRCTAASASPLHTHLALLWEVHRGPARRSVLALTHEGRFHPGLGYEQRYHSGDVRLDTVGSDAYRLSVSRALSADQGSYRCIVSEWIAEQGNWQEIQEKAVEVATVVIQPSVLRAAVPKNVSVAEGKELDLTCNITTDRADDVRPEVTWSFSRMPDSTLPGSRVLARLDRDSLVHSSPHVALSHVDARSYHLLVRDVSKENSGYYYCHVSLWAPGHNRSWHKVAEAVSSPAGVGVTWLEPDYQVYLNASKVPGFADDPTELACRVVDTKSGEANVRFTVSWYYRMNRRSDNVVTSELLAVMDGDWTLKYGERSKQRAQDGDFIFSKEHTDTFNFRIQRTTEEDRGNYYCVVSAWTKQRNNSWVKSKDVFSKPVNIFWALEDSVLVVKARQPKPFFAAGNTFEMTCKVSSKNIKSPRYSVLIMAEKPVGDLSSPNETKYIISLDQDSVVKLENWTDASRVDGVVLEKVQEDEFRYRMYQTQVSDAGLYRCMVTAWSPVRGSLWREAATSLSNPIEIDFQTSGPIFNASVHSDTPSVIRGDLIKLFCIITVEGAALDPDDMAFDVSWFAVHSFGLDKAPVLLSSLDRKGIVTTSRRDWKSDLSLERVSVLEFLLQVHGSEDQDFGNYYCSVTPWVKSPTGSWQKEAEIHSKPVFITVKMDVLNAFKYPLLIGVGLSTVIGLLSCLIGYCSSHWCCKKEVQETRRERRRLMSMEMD
T1 sequence (P21926 2-228 limits assumed): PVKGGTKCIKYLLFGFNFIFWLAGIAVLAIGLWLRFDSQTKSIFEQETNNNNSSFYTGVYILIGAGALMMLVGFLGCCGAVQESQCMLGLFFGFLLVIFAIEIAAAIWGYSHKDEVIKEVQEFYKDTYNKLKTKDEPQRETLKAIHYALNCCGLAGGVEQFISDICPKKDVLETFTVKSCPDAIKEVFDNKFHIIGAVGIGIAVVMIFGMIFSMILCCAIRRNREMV
Description: (§1) FIG. 13 is a photograph representing the dissociation of CD9-CD9P-1, CD9P-1-CD151 and CD9-CD151 complexes by P3 in HUVECs. HUVECs incubated for 2 h with 33 μM P3, PCT or solvent in EGM2-MV medium were lysed in brij 97 buffer, then CD81, CD9 or CD151 were immunoprecipitated with the corresponding antibody. Line A: Western blot results obtained with anti-CD9P-1 antibody from immunoprecipitated CD81, CD9 and CD151. Line B: Western blot results obtained with anti-CD9 antibody from immunoprecipitated CD81, CD9 and CD151. Line C: Western blot results obtained with anti-CD151 antibody from immunoprecipitated CD81, CD9 and CD151. PCT: control peptide. IP: immunoprecipitation.
(§2) To study more precisely the effect of P3 on the associations of tetraspanins CD9, CD81, and CD151 between them and with CD9P-1, immunoprecipitation (IP) experiments were performed. In the control experiment (with the solvent), CD9P-1 co-precipitated with CD9 and CD81. A weak co-precipitation was observed between […] and CD151. The associations between tetraspanins and CD9P-1 are not modified under PCT condition. However, the interactions between CD9P-1 and CD9 and between CD9P-1 and CD151 are decreased while the HUVECs are incubated for 2 hrs with 33 μM of P3. The association between CD9P-1 and CD81 is not modified by P3 (FIG. 13A).

[2] = biological target: T2, CD9P-1-CD151 complex (Homo sapiens, UniProt P48509+Q9P2B2); experiment: Immunoprecipitation in HUVECs: CD9P-1 with CD151
T2 construct: endogenous in cells; host or cells: HUVEC
T2 sequence (Q9P2B2 26-879): T1 sequence (Q9P2B2 26-879)
T2 sequence (P48509 1-253): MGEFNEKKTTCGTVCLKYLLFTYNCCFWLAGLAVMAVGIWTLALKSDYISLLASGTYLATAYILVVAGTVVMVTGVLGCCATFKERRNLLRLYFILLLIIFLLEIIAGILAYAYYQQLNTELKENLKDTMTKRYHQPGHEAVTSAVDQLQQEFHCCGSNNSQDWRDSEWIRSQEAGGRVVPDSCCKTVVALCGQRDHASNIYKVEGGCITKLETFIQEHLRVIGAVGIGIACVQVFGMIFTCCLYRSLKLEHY
Description: as §1, §2

[3] = biological target: T3, CD9P-1 and CD81 association (Homo sapiens, UniProt P60033+Q9P2B2); experiment: Immunoprecipitation in HUVECs: CD9P-1 with CD81
T3 construct: endogenous in cells; host or cells: HUVEC
T3 sequence (Q9P2B2 26-879): T1 sequence (Q9P2B2 26-879)
T3 sequence (P60033 1-236): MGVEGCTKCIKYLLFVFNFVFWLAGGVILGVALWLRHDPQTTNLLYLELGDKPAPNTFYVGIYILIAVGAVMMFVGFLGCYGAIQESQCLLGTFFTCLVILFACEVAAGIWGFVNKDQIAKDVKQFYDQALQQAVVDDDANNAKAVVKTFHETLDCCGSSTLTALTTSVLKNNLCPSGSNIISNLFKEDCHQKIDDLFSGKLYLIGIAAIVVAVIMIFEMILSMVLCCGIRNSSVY
Description: as §1, §2

- interaction between CD9P-1 and CD9 [1]: not modified
- interaction between CD9P-1 and CD151 [2]: not modified
- association between CD9P-1 and CD81 [3]: not modified
Sequence: NQKGCYDLVT (control peptide) [PCT]
